# From patent US20230174642A1, “AFFINITY-MATURATED ANTI-ASIC1a ANTIBODIES” (SHANGHAITECH UNIVERSITY, priority 2019, published 2023)
# T1: mouse ASIC1a (mASIC1a-eYFP) (Mus musculus, UniProt Q6NXK8)
# T1 construct: expressed in transfected cells; host or cells: CHO-K1 (transient)
# T1 sequence (Q6NXK8 1-526): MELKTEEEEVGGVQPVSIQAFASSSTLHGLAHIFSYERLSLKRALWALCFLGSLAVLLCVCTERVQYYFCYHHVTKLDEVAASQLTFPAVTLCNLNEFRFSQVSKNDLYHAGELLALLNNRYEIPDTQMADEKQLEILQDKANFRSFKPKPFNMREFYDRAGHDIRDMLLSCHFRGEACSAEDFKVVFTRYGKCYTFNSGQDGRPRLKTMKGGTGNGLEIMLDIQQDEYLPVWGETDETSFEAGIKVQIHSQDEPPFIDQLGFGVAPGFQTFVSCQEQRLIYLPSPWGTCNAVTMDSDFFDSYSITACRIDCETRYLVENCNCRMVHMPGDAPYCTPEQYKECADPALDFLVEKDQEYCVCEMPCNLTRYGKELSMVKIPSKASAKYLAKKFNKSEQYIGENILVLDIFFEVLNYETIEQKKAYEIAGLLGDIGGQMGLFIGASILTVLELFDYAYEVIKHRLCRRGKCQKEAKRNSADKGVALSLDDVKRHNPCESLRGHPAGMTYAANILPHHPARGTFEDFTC
# T2: human ASIC1a (hASIC1a-eYFP) (Homo sapiens, UniProt P78348)
# T2 construct: expressed in transfected cells; host or cells: CHO-K1 (transient)
# T2 sequence (P78348 1-528): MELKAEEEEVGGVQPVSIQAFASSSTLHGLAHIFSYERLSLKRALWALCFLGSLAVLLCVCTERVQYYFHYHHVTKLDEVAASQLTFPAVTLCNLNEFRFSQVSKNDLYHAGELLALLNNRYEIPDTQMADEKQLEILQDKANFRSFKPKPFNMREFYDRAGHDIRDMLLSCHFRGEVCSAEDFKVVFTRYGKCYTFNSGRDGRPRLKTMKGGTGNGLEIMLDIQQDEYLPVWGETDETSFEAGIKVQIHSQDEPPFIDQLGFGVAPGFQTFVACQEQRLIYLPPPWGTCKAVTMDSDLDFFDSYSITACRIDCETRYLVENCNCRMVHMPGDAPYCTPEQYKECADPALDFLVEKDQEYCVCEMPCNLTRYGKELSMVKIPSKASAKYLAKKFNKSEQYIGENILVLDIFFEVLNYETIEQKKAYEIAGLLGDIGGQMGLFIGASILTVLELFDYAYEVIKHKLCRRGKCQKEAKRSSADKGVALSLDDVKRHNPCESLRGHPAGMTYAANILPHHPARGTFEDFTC
# T3: rat ASIC1a (rASIC1a-eYFP) (Rattus norvegicus, UniProt P55926)
# T3 construct: expressed in transfected cells; host or cells: CHO-K1 (transient)
# T3 sequence (P55926 1-526): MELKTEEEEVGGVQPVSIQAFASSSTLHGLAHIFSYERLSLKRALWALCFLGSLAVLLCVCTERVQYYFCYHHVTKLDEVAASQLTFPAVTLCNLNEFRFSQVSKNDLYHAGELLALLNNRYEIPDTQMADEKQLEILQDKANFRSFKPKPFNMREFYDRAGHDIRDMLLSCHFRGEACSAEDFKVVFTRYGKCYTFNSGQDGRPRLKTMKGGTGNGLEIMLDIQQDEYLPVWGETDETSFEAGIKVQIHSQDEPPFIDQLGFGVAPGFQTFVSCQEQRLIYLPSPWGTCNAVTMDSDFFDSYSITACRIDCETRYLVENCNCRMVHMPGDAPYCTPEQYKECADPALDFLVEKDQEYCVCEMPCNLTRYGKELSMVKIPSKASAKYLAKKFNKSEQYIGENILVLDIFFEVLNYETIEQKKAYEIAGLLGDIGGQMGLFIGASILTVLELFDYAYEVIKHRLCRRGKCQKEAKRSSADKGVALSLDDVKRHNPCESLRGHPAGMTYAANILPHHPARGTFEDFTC
# T4: hASIC1a-mCherry fusion on a stable cell line (human, UniProt P78348 1-528)
# T4 sequence (looked up): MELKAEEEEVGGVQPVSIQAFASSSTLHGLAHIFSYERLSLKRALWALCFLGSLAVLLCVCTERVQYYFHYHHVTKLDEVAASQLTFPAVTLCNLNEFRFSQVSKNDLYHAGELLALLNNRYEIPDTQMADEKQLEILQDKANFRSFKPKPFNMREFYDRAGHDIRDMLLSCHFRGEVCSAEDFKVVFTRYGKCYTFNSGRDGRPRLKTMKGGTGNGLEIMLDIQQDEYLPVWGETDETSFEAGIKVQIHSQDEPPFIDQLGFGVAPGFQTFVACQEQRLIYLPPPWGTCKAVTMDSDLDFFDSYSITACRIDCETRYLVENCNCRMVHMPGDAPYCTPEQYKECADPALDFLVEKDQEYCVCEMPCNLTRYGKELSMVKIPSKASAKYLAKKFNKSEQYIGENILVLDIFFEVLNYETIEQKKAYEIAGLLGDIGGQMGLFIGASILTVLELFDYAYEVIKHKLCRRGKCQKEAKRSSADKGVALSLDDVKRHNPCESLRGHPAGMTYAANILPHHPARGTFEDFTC
# T5: hASIC1a on CHO-K1 cells stably expressing hASIC1a (human, UniProt P78348 1-528)
# T5 sequence (looked up): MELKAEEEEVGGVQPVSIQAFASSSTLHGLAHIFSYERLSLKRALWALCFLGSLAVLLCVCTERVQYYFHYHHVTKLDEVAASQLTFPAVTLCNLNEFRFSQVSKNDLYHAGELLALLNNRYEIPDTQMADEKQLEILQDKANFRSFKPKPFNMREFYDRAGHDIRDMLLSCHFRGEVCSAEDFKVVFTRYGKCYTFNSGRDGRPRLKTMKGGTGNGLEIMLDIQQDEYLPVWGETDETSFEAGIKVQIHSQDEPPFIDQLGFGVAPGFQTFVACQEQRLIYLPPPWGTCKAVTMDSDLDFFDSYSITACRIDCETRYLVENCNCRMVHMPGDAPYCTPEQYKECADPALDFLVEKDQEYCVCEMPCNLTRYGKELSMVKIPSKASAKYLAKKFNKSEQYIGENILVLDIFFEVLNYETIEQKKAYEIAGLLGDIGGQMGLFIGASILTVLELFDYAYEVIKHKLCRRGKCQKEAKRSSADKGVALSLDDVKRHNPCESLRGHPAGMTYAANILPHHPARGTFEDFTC
# T6: mouse ASIC1a-eYFP (mASIC1a-eYFP) on transiently transfected CHO-K1 cells (mouse, UniProt Q6NXK8 1-526)
# T6 construct: whole, on cells; not shown: eYFP fusion partner
# T6 sequence (looked up): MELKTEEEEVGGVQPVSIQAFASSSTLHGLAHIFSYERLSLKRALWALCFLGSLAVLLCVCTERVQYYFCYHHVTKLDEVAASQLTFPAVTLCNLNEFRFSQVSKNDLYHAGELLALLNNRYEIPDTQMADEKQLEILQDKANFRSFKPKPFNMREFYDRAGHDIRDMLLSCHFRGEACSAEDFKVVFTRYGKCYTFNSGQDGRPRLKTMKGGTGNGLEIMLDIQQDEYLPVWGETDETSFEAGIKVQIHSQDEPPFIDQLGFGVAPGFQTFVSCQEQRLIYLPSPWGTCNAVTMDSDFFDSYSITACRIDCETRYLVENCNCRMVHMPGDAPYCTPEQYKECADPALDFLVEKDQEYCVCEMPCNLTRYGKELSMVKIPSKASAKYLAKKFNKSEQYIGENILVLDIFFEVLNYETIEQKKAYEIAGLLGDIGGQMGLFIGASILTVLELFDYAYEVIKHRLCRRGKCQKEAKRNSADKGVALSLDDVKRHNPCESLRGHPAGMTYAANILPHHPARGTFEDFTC
# Experiments:
# [1] = biological target: T1, mouse ASIC1a (mASIC1a-eYFP); assay: FACS-based binding assay, transiently transfected CHO-K1 cells (species selectivity); conditions: double positive population
# Description: (§1) To investigate the species selectivity of ASC06-IgG1 affinity-matured antibodies, plasmids encoding fusion proteins of eYFP with […] homologs of ASIC1a were constructed. These plasmids included those encoding human ASIC1a (hASIC1a-eYFP), mouse ASIC1a (mASIC1a-eYFP), and rat ASIC1a (rASIC1a-eYFP). CHO-K1 cells were transiently transfected with the ASIC1a-eYFP plasmids, and a fluorescence activated cell sorting (FACS)-based binding assay was carried out to determine binding to the homologs or isoforms of ASIC1a expressed on the cell surface. An isotype control was used as a negative control for binding (NC). ASC06-IgG1 was used as a positive control. Summarily, the CHO-K1 cells expressing the ASIC1a-eYFP (green) homologs were stained with the indicated antibody (red) and subjected to FACS.
# [2] = biological target: T2, human ASIC1a (hASIC1a-eYFP); assay: as above; conditions: double positive population
# Description: as §1
# [3] = biological target: T3, rat ASIC1a (rASIC1a-eYFP); assay: as above; conditions: double positive population
# Description: as §1
# [4] = biological target: T4, hASIC1a-mCherry fusion on a stable cell …; assay: cell-based or functional assay
# [5] = biological target: T5, hASIC1a on CHO-K1 cells stably …; assay: cell-based or functional assay
# [6] = biological target: T6, mouse ASIC1a-eYFP (mASIC1a-eYFP) on …; assay: FACS on transiently transfected CHO-K1 cells
# Description: as §1
# To examine the ASIC isotype selectivity of ASC06-IgG1 affinity-matured antibodies, plasmids encoding fusion proteins of eYFP with isoforms of […] were constructed. These plasmids included those encoding human ASIC1b (hASIC1b-eYFP), human ASIC2a (hASIC2a-eYFP), and human ASIC3a (hASIC3a-eYFP). CHO-K1 cells were transiently transfected with these plasmids and used in a FACS-based binding assay disclosed herein. Binding of ASC06-IgG1 to CHO-K1 cells expressing human ASIC1a-eYFP (hASIC1a-eYFP) was used as a positive control (data not shown and FIG. 2), and an isotype control was used as a negative control for binding (NC).
# [7] = biological target: T5, hASIC1a on CHO-K1 cells stably …; assay: cell-based or functional assay; remark: listed apart in the source
Molecule,binding to cells expressing mASIC1a-eYFP [1],binding to cells expressing hASIC1a-eYFP [2],binding to cells expressing rASIC1a-eYFP [3],"IC50 for the inhibition of acid induced ASIC1a-mediated calcium influx, FLIPR-based assay [4]","Percent inhibition of the acid induced-hASIC1a currents, 30 nM antibody (Patch Clamp) [5]","Percent inhibition of the acid induced-hASIC1a currents, 100 nM antibody (Patch Clamp) [5]",binding result [6],"IC50 for the inhibition of ASIC1a currents, FMP assay [7]"
"ASC06-03-IgG1: affinity-matured ASC06 derivative, VH-CDR3 DSFYGRAKGS (SEQ ID NO: 15) (antibody, V domains shown) VH: QVQLQQSGGGLVQPGGSLRLSCAASGFTFSSYAMSWVRQAPGKGLEWVSAISGSGGSTYYADSVKGRFTISRDNSKNTLYLQMNSLRAEDTAVYYCAKDSFYGRAKGSWGQGTLVTVSS VL: QSALTQPASVSGSPGQSITISCTGTSSDVGAYNYVSWYQQQPGKAPKLMIYGVSNRPSGVSNRFSGSKSGNAASLTISGLQAEDEADYYCSSYTSSSTYVFGTGTKLTVLG",bound,bound,bound,–,–,–,–,–
"ASC06-02-IgG1: affinity-matured ASC06 derivative, VH-CDR3 DSFFGRAKGS (SEQ ID NO: 13) (antibody, V domains shown) VH: QVQLQQSGGGLVQPGGSLRLSCAASGFTFSSYAMSWVRQAPGKGLEWVSAISGSGGSTYYADSVKGRFTISRDNSKNTLYLQMNSLRAEDTAVYYCAKDSFFGRAKGSWGQGTLVTVSS VL: QSALTQPASVSGSPGQSITISCTGTSSDVGAYNYVSWYQQQPGKAPKLMIYGVSNRPSGVSNRFSGSKSGNAASLTISGLQAEDEADYYCSSYTSSSTYVFGTGTKLTVLG",bound,bound,bound,–,–,–,–,–
"ASC06-01-IgG1 (antibody, V domains shown, Full length IgG1) VH: QVQLQQSGGGLVQPGGSLRLSCAASGFTFSSYAMSWVRQAPGKGLEWVSAISGSGGSTYYADSVKGRFTISRDNSKNTLYLQMNSLRAEDTAVYYCAKDSYFGYSKGDWGQGTLVTVSS VL: QSALTQPASVSGSPGQSITISCTGTSSDVGAYNYVSWYQQQPGKAPKLMIYGVSNRPSGVSNRFSGSKSGNAASLTISGLQAEDEADYYCSSYTSSSTYVFGTGTKLTVLG",–,–,–,2.24 nM,20%,49%,binds,74 nM
"ASC06-04-IgG1 (antibody, V domains shown, Full length IgG1) VH: QVQLQQSGGGLVQPGGSLRLSCAASGFTFSSYAMSWVRQAPGKGLEWVSAISGSGGSTYYADSVKGRFTISRDNSKNTLYLQMNSLRAEDTAVYYCAKDSFYGRAKGVWGQGTLVTVSS VL: QSALTQPASVSGSPGQSITISCTGTSSDVGAYNYVSWYQQQPGKAPKLMIYGVSNRPSGVSNRFSGSKSGNAASLTISGLQAEDEADYYCSSYTSSSTYVFGTGTKLTVLG",–,–,–,–,–,96.7%,binds,51.8 nM
